The results in this text go back to PMC3623455.

The term kcat denotes the maximal rate divided by the concentration of active sites.

Substrate in data set [1]: O=C(CO)[C@H](O)[C@@H](O)CO
The data set is described as follows: purified protein. The following applies: 50 mM Tris-HCl pH 7.0, 0.5 mM NADPH, sugar reduction.

Substrate in data set [2]: OC[C@@H](O)[C@H](O)[C@@H](O)CO
Nature of the data set: purified protein. To be noted: 100 mM Tris-HCl pH 8.0, 1 mM NADP+, polyol oxidation.

B1: LXR3 (Trichoderma reesei QM6a) (protein)
chain: KNGAFPHDNAAVPNVERVLPLFSLKGRTAIVSGAGAGIGLAVAQAFAEAGANVAIWYNSNKQAVTSAEDIAKTYGVKCKAYQVNVTSAEAVDKAITEIIKEFNGRLDVFVANSGITWTEGAFIDGSVESARNVMSVNVDGVMWCAKSAGAHFRRQKEEGTTIDGKPLDNFIAGSFIATASMSGSIVNVPQLQAVYNSSKAAVIHFCKSLAVEWTGFARVNTVSPGYIITEISNFVPPETKTLWKDKIVMGREGRVGELKGAYLYLASDASSYTTGLDMIVDGGYSLP
With B1, the figures for the kcat in data set [1] and in data set [2] were 11.4 s⁻¹ and 1 s⁻¹, respectively.
